Measured values: patent publication US20120263734A1

Target: GPCMV gB (glycoprotein B of Guinea Pig CMV strain V545/82) (guinea pig CMV (GPCMV))
Assay: cell-based or functional assay

For ITC88 control antibody, the neutralization of GPCMV V545/82 entry into JH4 cells (highest concentration tested, no effect) was over 300 µg/mL.
